{
  "source": "paper PMC9435672",
  "about": "“Structure of angiogenin dimer bound to double-stranded RNA”",
  "binders": {"B1": {"name": "N19-RNA duplex (dsRNA)", "RNA 1": "GCCCGCCUGUCACGCGGGC", "RNA 2": "GCCCGCCUGUCACGCGGGC"}},
  "molecular_target": "angiogenin H114A (hAng, RNase 5) (Homo sapiens, UniProt P03950 25-147, H138A)",
  "sequence (P03950 25-147 H138A)": "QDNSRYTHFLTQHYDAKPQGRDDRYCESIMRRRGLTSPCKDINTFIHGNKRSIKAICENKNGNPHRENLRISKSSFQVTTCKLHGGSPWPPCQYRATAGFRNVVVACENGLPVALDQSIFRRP",
  "assay": "X-ray crystallography; sequence-independent backbone contacts except Arg24 (C38, C32); RNA does not reach active site; crystals at 277 K; Complex: 20 mM Tris pH 8.0, 120 mM NaCl, on ice 30 min, RNA:protein 1.2:1; crystallization reservoir 200 mM NaCl, 20% PEG 6000, 100 mM HEPES pH 7.0, 277 K",
  "conditions": "protein: recombinant; tags: none stated (pET-26b(+)); chain copies: 2; self-duplex of 2 identical strands, blunt; designed as stem-loop but duplex in crystal",
  "data": [
    {"binder": "B1", "values": [
      {"measurement": "binding result", "value": "binds"}
    ]}
  ]
}
